Measurements taken from patent US20120251547A1 (Amgen, published 2012).
Where a chain is given by its changes, count along the chain named.

B1: AMH19/AML19 (antibody, IgG2, V domains shown)
VH: QVQLVQSGAEVKKPGASVKVSCKASGYTLTSYGISWVRQAPGQGLEWMGWISAYSGNTKYAQKFQGRVTMTTDTSTSTAYMELRSLRSDDTAVYYCARRQLALDYWGQGTLVTVSS
VL: EIVMTQSPATLSVSPGERATLSCRASQSISSNLAWYQQKPGQAPRLLIYGASTRATGIPARFSDNGSGTEFTLTISSLQSEDFAVYFCQQYDTWPLTFGGGTKVEIK
B2: AMH7/AML7 (antibody, IgG2, V domains shown)
VH: QVQLVQSGAEVKKPGASVKVSCKASGYTLTRYGISWVRQAPGQGLEWMGWISAYNGNTNYAQKLQGRVTMTTDTSTSTAYMELRSLRSDDTAVYYCARRDYDILTGYYNGFDPWGQGTLVTVSS
VL: DIQMTQSPSSLSASVGDRVTITCRASQGIRNDLGWYQQKPGKAPKRLIYAASSLQSGVPSRFSGSGSGTEFTLTISSLQPEDFATYYCLQHKSYPLTFGGGTKVEIK
notes: human mAb from IgG2 XenoMouse mice; also called AM-7; antibody D
B3: AMH6/AML6 (antibody, IgG2, V domains shown)
VH: B2 VH
VL: B2 VL
notes: human mAb from IgG2 XenoMouse mice; also called AM-6; antibody E
B4: AMH8/AML8 (antibody, IgG2, V domains shown)
VH: B2 VH with Y27N, L29F, R31G, K63N
VL: B2 VL
notes: human mAb from IgG2 XenoMouse mice; also called AM-8; antibody C
B5: AMH11/AML11 (antibody, IgG2, V domains shown)
VH: QVQLVESGGGVVQPGRSLRLSCATSGITFSSYGMHWVRQAPGKGLEWVAVIWYDGSNKYYADSVKGRFTISRDNSKNTLYLQMNSLRAEDTAVYYCARDTKDYWGQGTLVTVSS
VL: EIVMTQSPATLSVSPGERATLSCRASQSVSSNLAWYQQKPGQAPRLLIYGASTRAAGIPARFSGGGSGTAFTLTISNLQSEDFAVYYCQHYINWPKWTFGQGTKVDIK
notes: human mAb from IgG2 XenoMouse mice; also called AM-11; antibody A
B6: AMH4/AML4 (antibody, IgG2, V domains shown)
VH: B5 VH with T24A, T28N, Y59H, K101G, D102V
VL: not shown
notes: human mAb from IgG2 XenoMouse mice; also called AM-4; antibody B
B7: AMH10/AML10 (antibody, IgG2, V domains shown)
VH: QVQLQESGPGLVKPSQTLSLTCTVSGGSISSGGYYWSWIRQHPGKGLEWIGYIYFSGSAYYNPSLKSRVAISVDTSKNQFSLKLSSVTAADTAVYYCAREYYDSSGYPDAFDIWGQGTMVTVSS
VL: DIQMTQSPSSVSASVGDRVTITCRASQGIRSWLAWYQQKPGKAPKLLIFAASSLQSGVPSRFSGSGSGTEFTLTISSLQPEDFATYYCQQANNFPRTFGQGTKVEIK
notes: human mAb from IgG2 XenoMouse mice; also called AM-10; antibody F
B8: AMH5/AML5 (antibody, IgG2, V domains shown)
VH: QVQLQESGPGLVKPSETLPLTCTVSGGSIRSYYWSWIRQPAGKGLEWIGRIYRSGNTIYNPSLKSRVTMSIDTSKNQFSLTLSSVTAADTAVYYCARENYSESSGLYYYYGMDVWGQGTTVTVSS
VL: B2 VL with L54F, E70G, K92N, L96P, G100Q
notes: human mAb from IgG2 XenoMouse mice; tested only as part of a non-clonal hybridoma supernatant; also called AM-5
B9: AMH1/AML1 (antibody, IgG2, V domains shown)
VH: QVQLQESGPGLVKPSETLSLTCTVSGGSISNYYWNWIRQSPGKGLEWIGDIYYSGSTNYNPSLKSRVTISVDTSKNQFSLKLSSVTTADTAVYYCARDGELANYYGSGSYQFYYYYGMDVWGQGTTVTVSS
VL: B2 VL with Q3L, K92N, Y94N, L96F, G100P, E105D
notes: human mAb from IgG2 XenoMouse mice; also called AM-1; antibody H
B10: AMH22/AML22 (antibody, IgG2, V domains shown)
VH: B1 VH with L29F, S31R, K59N, F64L, A102Y, L103F
VL: EIVMTQSPATLSVSPGERVTLSCRASQSVSSNLAWFQQKPGQAPRPLIYDASTRAAGIPARFSGSGSGTDFTLTISSLQSEDFAVYYCQQYDNWPLTFGGGTKVEIK
notes: human mAb from IgG2 XenoMouse mice; also called AM-22; antibody I

Target: T1, human IL-17RA, full-length, on cells (human, UniProt Q96F46 33-866)
Assay: cell-based or functional assay

B1 was tested, and the “IL-17A/HFF bioassay IC50, subclone 10” value was 0.22 nM.

With B1 the “IL-17A/HFF bioassay IC50, subclone 11” value was 1.1 nM.

With B1 the “IL-17A/HFF bioassay IC50, subclone 12” value was 0.5 nM.

Target: T1, human IL-17RA, full-length, on cells
Assay: cell-based or functional assay
Remark: another data set of the same source

B1 was tested, and the “IL-17A/HFF IC50” value was 0.2 nM.

B1 was tested, and the “IL-17A/lung fibroblast IC50” value was 0.22 nM.

For B1, the “IL-17F/HFF IC50” value was 0.087 nM.

Target: T2, huIL-17RA-FLAG-polyHis (human, UniProt Q96F46 33-320)
T2 construct: also called IL-17RA-FLAG-pHis; wild-type IL-17RA
Assay: binning; IL-17RA held by bead mAb A
Procedure: (§1) The method employed the Bio-Plex Workstation and software (BioRad, Hercules, Calif.), as well as reagents from Luminex® Corp. (Austin, Tex.). […] The mouse-anti-human IgG coating was evaluated and the beads quantified by FACS. Each bead code was separately incubated with 10 ul of anti-IL-17RA antibody for 1 hour at room temperature and then washed. The beads were pooled and then dispensed to a 96-well filter plate (Millipore, Billerica, Mass., product #MSBVN1250). […] The PE-tagged monovalent antibody will detect the presence of the second mAb added to the well, but not the first mAb captured by the monovalent mouse-anti-human IgG antibody. Beads were resuspended in 120u1 PBSAT and at least 100 events/bead code were collected on the Bio-Plex workstation as per the manufacturer's recommended protocol.

In order of falling “normalized MFI” value:
1. B7  114
2. B3  -70.5
3. B4  -178
4. B5  -220
5. B2  -233
6. B6  -326

Target: T2, huIL-17RA-FLAG-polyHis
Assay: binning; IL-17RA held by bead mAb B
Procedure: as §1

In order of falling “normalized MFI” value:
1. B5  1200
2. B4  816
3. B2  684
4. B7  545
5. B6  453
6. B3  447

Target: T2, huIL-17RA-FLAG-polyHis
Assay: binning; IL-17RA held by bead mAb C
Procedure: as §1

In order of rising “normalized MFI” value:
1. B6  150
2. B3  173
3. B2  217
4. B7  253
5. B4  260
6. B5  330

Target: T2, huIL-17RA-FLAG-polyHis
Assay: binning; IL-17RA held by bead mAb D
Procedure: as §1

In order of rising “normalized MFI” value:
1. B3  168
2. B7  179
3. B2  207
4. B6  213
5. B4  264
6. B5  337

Target: T2, huIL-17RA-FLAG-polyHis
Assay: binning; IL-17RA held by bead mAb E
Procedure: as §1

In order of falling “normalized MFI” value:
1. B5  300
2. B2  192
3. B6  182
4. B7  175
5. B4  163
6. B3  130

Target: T2, huIL-17RA-FLAG-polyHis
Assay: binning; IL-17RA held by bead mAb F
Procedure: as §1

In order of falling “normalized MFI” value:
1. B5  345
2. B2  269
3. B4  239
4. B7  187
5. B6  173
6. B3  152

Target: T2, huIL-17RA-FLAG-polyHis
Assay: binning; IL-17RA held by bead mAb H
Procedure: as §1

In order of falling “normalized MFI” value:
1. B5  8640
2. B6  6790
3. B7  3970
4. B2  3180
5. B4  2950
6. B3  2540

Target: T2, huIL-17RA-FLAG-polyHis
Assay: binning; IL-17RA held by bead mAb M
Procedure: (§2) The method employed the Bio-Plex Workstation and software (BioRad, Hercules, Calif.), as well as reagents from Luminex® Corp. (Austin, Tex.). The manufacturers' basic protocols were followed except where noted below (see www.bio-rad.com and www.luminexcorp.com for details). […] The mouse-anti-human IgG coating was evaluated and the beads quantified by FACS. Each bead code was separately incubated with 10 ul of anti-IL-17RA antibody for 1 hour at room temperature and then washed. The beads were pooled and then dispensed to a 96-well filter plate (Millipore, Billerica, Mass., product #MSBVN1250). […] The PE-tagged monovalent antibody will detect the presence of the second mAb added to the well, but not the first mAb captured by the monovalent mouse-anti-human IgG antibody. Beads were resuspended in 120u1 PBSAT and at least 100 events/bead code were collected on the Bio-Plex workstation as per the manufacturer's recommended protocol.

In order of falling “normalized MFI” value:
1. B2  2980
2. B4  2880
3. B5  1860
4. B3  1770
5. B6  1300
6. B7  1020

Target: T2, huIL-17RA-FLAG-polyHis
Assay: binning; IL-17RA held by bead mAb P
Procedure: as §1

In order of rising “normalized MFI” value:
1. B7  1720
2. B3  3530
3. B6  5020
4. B2  5640
5. B4  5960
6. B5  6590

Target: T2, huIL-17RA-FLAG-polyHis
Assay: binning; IL-17RA held by bead mAb G
Procedure: as §1

In order of rising “normalized MFI” value:
1. B6  235
2. B2  318
3. B3  334
4. B7  342
5. B4  346
6. B5  454

Target: T2, huIL-17RA-FLAG-polyHis
Assay: binning; IL-17RA held by bead mAb I
Procedure: as §1

In order of falling “normalized MFI” value:
1. B4  6720
2. B2  6650
3. B5  5300
4. B3  4330
5. B6  3710
6. B7  3110

Target: T2, huIL-17RA-FLAG-polyHis
Assay: binning; IL-17RA held by bead mAb J
Procedure: as §2

In order of falling “normalized MFI” value:
1. B2  3640
2. B4  3590
3. B3  2420
4. B5  2320
5. B7  2120
6. B6  1400

Target: T2, huIL-17RA-FLAG-polyHis
Assay: binning; IL-17RA held by bead mAb K
Procedure: as §1

In order of falling “normalized MFI” value:
1. B2  8680
2. B4  8220
3. B5  7210
4. B3  5600
5. B6  4970
6. B7  4110

Target: T2, huIL-17RA-FLAG-polyHis
Assay: binning; IL-17RA held by bead mAb L
Procedure: as §1

In order of falling “normalized MFI” value:
1. B2  4260
2. B4  3540
3. B5  3020
4. B3  2660
5. B6  1980
6. B7  1720

Target: T2, huIL-17RA-FLAG-polyHis
Assay: binning; IL-17RA held by bead mAb N
Procedure: as §2

In order of rising “normalized MFI” value:
1. B7  1510
2. B6  1950
3. B3  2410
4. B5  2650
5. B4  3630
6. B2  3840

Target: T2, huIL-17RA-FLAG-polyHis
Assay: binning; IL-17RA held by bead mAb O
Procedure: as §1

In order of falling “normalized MFI” value:
1. B2  5540
2. B4  5520
3. B5  3800
4. B3  3310
5. B6  2640
6. B7  2630

Target: T2, huIL-17RA-FLAG-polyHis
Assay: binning; IL-17RA held by bead mAb Q
Procedure: as §1

In order of falling “normalized MFI” value:
1. B5  9650
2. B6  8280
3. B4  5500
4. B2  4690
5. B3  2390
6. B7  1650

Target: T2, huIL-17RA-FLAG-polyHis
Assay: binning; IL-17RA held by bead mAb R
Procedure: as §1

In order of falling “normalized MFI” value:
1. B5  7060
2. B6  5880
3. B4  3950
4. B2  3550
5. B3  1660
6. B7  1120

Target: T3, cynomolgus IL-17RA, on cells (cynomolgus)
T3 construct: whole, on cells; also called CHO-cynoIL-17RA; cyno IL-17RA+ CHO cells
Assay: FACS competition: non-clonal supernatant inhibiting biotin-huIL-17A (competitor) binding to cyno IL-17RA+ CHO cells

In order of falling MFI:
1. B10  18
2. B9  11
3. B8  9
4. B5  9
